Test system: MS2 coat protein
Experiment: apparent KD of MS2 coat protein; designed switch direction (-1 OFF switch, 1 ON switch): -1; higher = weaker reporter binding
Summary of the method: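 SNAP-549-labelled MS2 coat protein was titrated, doubling from 0.7 or 1.5 nM to 3 µM, over designed RNA switches transcribed on Illumina chips by stalled E. coli RNA polymerase. Runs were done without input, with 200 uM small-molecule ligand, or with an oligonucleotide input. Apparent KD is the per-design median over clusters of curve-fitted normalised fluorescence.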

[1] = Eterna round: R95, input ligand: FMN 200 uM
[2] = Eterna round: R95, input ligand: microRNA oligo, concentration not stated
[3] = Eterna round: R95, input ligand: none
[4] = input ligand: microRNA oligo, concentration not stated

Sequence | apparent KD of MS2 coat protein [1] [nM] | apparent KD of MS2 coat protein [2] [nM] | apparent KD of MS2 coat protein [3] [nM] | apparent KD of MS2 coat protein (input ligand: FMN 200 uM) [nM] | apparent KD of MS2 coat protein (input ligand: none) [nM] | apparent KD of MS2 coat protein [4] [nM]
AUGAGACAUGAGGAUCACCCAUGUGAGGAUAUGUAUGGAUGGUAGAAAGAAUGAAAGAACAGAAGGCACGUAGA [JR_Exclu1_Sub061] (puzzle: Exclusion 1) | 143 | 150 | 210 | – | – | –
GUCCUGGAUUAUCACAAGCACAUGAGGAUCACCCAUGUCAUGGGUGGAUCCCUAAAUGGGUAUUCUGCUCGUCUUAU [Cac Sensor turn off v1 sub11] (Eterna round: R97, puzzle: Sensor, turn-off variant 1) | – | – | – | 417 | – | –
UUGUCGGCAGGAUAUACAUGAGGAUCACCCAUGUAAAUUUUUCGUUUAACUUGAAUGUGUAGAAGGGCCAUGUA [Ex3 #70] (Eterna round: R97, puzzle: Exclusion 3) | – | – | – | 28.2 | 25.2 | –
GAGUUAGCGUGAGGAAUAUACAUGAGGAUCACCCAUGUUGGCUAAUAUAUUGCUCGUCUUAUAACAACAAUUAACUG [Mod-hoo-honey#a] (Eterna round: R97, puzzle: Sensor, turn-off variant 1) | – | – | – | 16 | 16.4 | –
CAGUACUGAGGAUAUACAUGAGGAUCACCCAUGUGUUCCAGCUAGGAAACUAGCGAAUGUAGAAGGCAGUACUG [jl-ex3-4.22 salish99 mod] (Eterna round: R97, puzzle: Exclusion 3) | – | – | – | 451 | 355 | –
CGUGCGUAUGUGAGGAUAUGCUGGUCCUUGGCUCGGCAGAAGGCACAUGAGGAUCACCCAUGUGGUGUCGUACU [salish99_Bmod_ex4_069] (Eterna round: R96, puzzle: Brourd's mod of Exclusion 4) | – | – | – | 291 | 67.5 | 61.1
GUCAGCUCGUGAGGAUAUAUUAACAUGAGGAUCACCCAUGUAAGAUCAGGCUUCGGCCAAUGUUAAUAGAAGGCACGAGCUGAC [ENG2/12-A1] (Eterna round: R96, puzzle: Exclusion NG 2) | – | – | – | 739 | 72.9 | 38.9
UGGCGUUAAGGAUAUACAUGAGGAUCACCCAUGUUUCGGGAGAGCCAUUGAGCCGCAAGUAGAAGGUAGUACCC [Eternabot (L2) Solution 23] (Eterna round: R97, puzzle: Exclusion 3) | – | – | – | 37.4 | 47.9 | –
CGAGCACGUGUAAGGAUAUGCUCGCUCUAUUUGGCGCAGAAGGUACAUGAGGAUCACCCAUGUAGCGACUUGGG [Eternabot (L2) Solution 7] (Eterna round: R97, puzzle: Brourd's mod of Exclusion 4) | – | – | – | 41.6 | 27.6 | –
AGUAACUAUCACGAAAGUGAUAGUUACACAAGCAGUGAUACAUGAGGAUCACCCAUGUCCUCAUUUGCUCGUCUUAU [Sensor 3 - 28] (puzzle: Sensor v3, turn-off variant 2) | 83.6 | 698 | 91 | – | – | –
CCUCCACAUGAGGAUCACCCAUGUCAGGAUAUAGGAUUGCUAUCAUGAGAGGAUGGCGUUAGAAGGGACAUCAC [Eternabot (L1) Solution 69] (Eterna round: R97, puzzle: Exclusion 1) | – | – | – | 44.5 | 40 | –
ACAAGCUUUUUGCAUGUUAGGUUUGUUGCUUCGUAUGUAACAUGAGGAUCACCCAUGUAUUACUGAUGUCGUCGUUU [JR_SV3TOV2_Sub089] (puzzle: Sensor v3, turn-off variant 2) | 18.4 | 17.2 | 18.2 | – | – | –
GUCAGACGAGGAUAUAGAUUUAGAUACAUGAGGAUCACCCAUGUAUAUAUGUAUUUAGAUUUAGAAGGCGUCUGAC [E5/15-A3] (Eterna round: R97, puzzle: Exclusion 5) | – | – | – | 187 | 240 | –
UCUCGCGGGCAAGGAUAUCCCACACUGUUCUGGCCCGUGUCUGUUACAUGAGGAUCACCCAUGUGGGAGAAGGUGCACCAGGGC [Design 44] (Eterna round: R96, puzzle: Exclusion NG 2) | – | – | – | 78.8 | 35.9 | 31.6
CUCCGGCGUGUAGGAUAUGGAUCCGAUUAGGAUCCAGAAGGACAUGAGGAUCACCCAUGUACAUGUAAACAGUCAUCACCGGGC [salish99_ExNG1_r04_205] (Eterna round: R96, puzzle: Exclusion NG 1) | – | – | – | 131 | 21.4 | 18.2
GAGUGCCGAGGAUAUACAAAUAUCCGCUAAUUAAUGCGAAAACAUGAGGAUCACCCAUGUAGAAGGCUGCACUC [AK-MS2ROC-r4-exclusion2-3] (Eterna round: R97, puzzle: Exclusion 2) | – | – | – | 13.9 | 9.44 | –
AUCAUGUAAGGAUAUCUGACAAGUGACGAAAGUCACAGUUCAGAGAAGGUACAUGAGGAUCACCCAUGUAGAAC [Ex4-3: 42] (puzzle: Exclusion 4) | 82.4 | 51.3 | 71.6 | – | – | –

Sequence | apparent KD of MS2 coat protein [1] [nM] | apparent KD of MS2 coat protein [2] [nM] | apparent KD of MS2 coat protein [3] [nM] | apparent KD of MS2 coat protein (input ligand: FMN 200 uM) [nM] | apparent KD of MS2 coat protein (input ligand: none) [nM] | apparent KD of MS2 coat protein [4] [nM]
GCUGCGCGAGGAUAUGCGGUUCGCGCUGUGGCCCGUGGCGCACAUGAGGAUCACCCAUGUAGAAGGCGUGCGGG [Apr-15 SS2-57] (puzzle: Exclusion 2) | – | 9.52 | – | – | – | –
AGAGUACUGCGAGGAUAUACAUGAGGAUCACCCAUGUAAAAGUGUGAGGCAAAGCCUCACACUAUGUAGAAGGCGCAGUACUCA [Mat - Exclusion NG 2 - Mod of JL - D12] (Eterna round: R96, puzzle: Exclusion NG 2) | – | – | – | 19 | 18.2 | 9.76
UAUUAGCAAGCGAGAUCCCACAUGAGGAUCACCCAUGUAAUAAAGCAUCCAGAAUUACUGGGUGCAGCUCGUCUUAU [Winner reversed engineered 11] (Eterna round: R97, puzzle: Sensor, turn-off variant 1) | – | – | – | 32.7 | 31 | –
GGUCGACAUGAGGAUCACCCAUGUCAGGAUAUCGUCACUGGAGCCUCGGCUCCAGUGACGAGAAGGGACAUAAU [E1/14-A2] (Eterna round: R97, puzzle: Exclusion 1) | – | – | – | 23.4 | 31.4 | –
GCAGCAACUCUAACUAACUAAACAUGAGGAUCACCCAUGUCUCAGGAUAUGGUCUGGAUUACAGGCCAGAAGGGAGAAAGCUGC [Eli exng3 - 039] (Eterna round: R96, puzzle: Exclusion NG 3) | – | – | – | 12.6 | 14.5 | 10.9
AAAAUGUGAGGAUAUCAGGUGUGCUAGAGAACUGGUACAUCUGAGAAGGCACAUGAGGAUCACCCAUGUUCUUC [Mat - Exclusion 4 - Mod of JL - D57] (puzzle: Exclusion 4) | – | 30.9 | – | – | – | –
GGAAAGCAAGGAUAUACGAGGAGAAGGAGGAAAGUUAAAGGACAUGAGGAUCACCCAUGUAGAAGGUGCGAGAG [JR_Exclu2_Sub041] (puzzle: Exclusion 2) | 30 | 30.7 | 34.6 | – | – | –
GAAGCACAUGAGGAUCACCCAUGUAAGGAUAUACGUCUGGUCCGGCCGGACCAGUACCGUAGAAGGUACGUAAA [Excls-Ia] (puzzle: Exclusion 1) | – | 18.1 | – | – | – | –
UCCUCACAUGAGGAUCACCCAUGUCAGGAUAUAAGAAACGCGGAAGGCAGCCGCAAAAUUAGAAGGGACAUUAA [EX1 A.25] (Eterna round: R97, puzzle: Exclusion 1) | – | – | – | 39.7 | 20.6 | –
AAAAGUUAAGGAUAUACAGGGAGCCGCGGCGACUCGCCGCAACAUGAGGAUCACCCAUGUAGAAGGUAGCCAAA [Enbibi] (puzzle: Exclusion 2) | – | 23.7 | – | – | – | –
AAUAAACAUGAGGAUCACCCAUGUGAGGAUAUCGAAAUAAAUAAUAAAAUAAAUAAAACGAGAAGGCACAAUAA [JMF most obvious solution 3] (puzzle: Exclusion 1) | 40.4 | 46.2 | 47.5 | – | – | –
GUCAUGUUAGGAUAUCUAACAUGUGACUUCGGUCACUGUCCAGAGAAGGAACAUGAGGAUCACCCAUGUUGGAC [Ex4-3: 56] (puzzle: Exclusion 4) | – | 13 | – | – | – | –
CGGCCUCGAGGAUAUGCUAUAAAAUGACCUUGGGUCAAAUGACUUGAGGAUCACCCAAGUAGAAGGCGAAAGCC [Bibice] (Eterna round: R97, puzzle: Exclusion 2) | – | – | – | 102 | 93 | –
AAAUUGUGAGGAUAUUAGUUGUACGUCAAUAGACGUAUAAGUGAGAAGGCACAUGAGGAUCACCCAUGUUCCUG [Omei Ex4 Mod of Mat's R95 mod of Omei] (Eterna round: R97, puzzle: Exclusion 4) | – | – | – | 61.8 | 16.8 | –
UAUUAGUAAGGAUAUGAGACGUAGGACUAAUGUCCUACGUCUCAGAAGGUACAUGAGGAUCACCCAUGUUUAUU [Mod of Fisker 8 - Jieux - Exclusion 4] (Eterna round: R97, puzzle: Exclusion 4) | – | – | – | 23.5 | 19.3 | –
AAGUAUAGAGGAUAUAGUGAGUACUACAUGAGGAUCACCCAUGUUCUUCAAAACGUAUUUCUAGAAGGCUGAUAAA [EX-5 Malc#21] (puzzle: Exclusion 5) | 110 | 47.8 | 59.1 | – | – | –
ACAAGCUUUGUUGGGUGGUACAUGAGGAUCACCCAUGUUUGCCGCGUCUUGUGGGCCCGGGCCCGCGGCCCGGGCCC [-41.8, -63.9, A 12%] (Eterna round: R97, puzzle: Sensor, turn-off variant 1) | – | – | – | 403 | 460 | –

Reference: the supplement of paper PMC9170038
